Measurements as given in patent US5766897A, “Cysteine-pegylated proteins” (Incyte Pharmaceuticals, Inc., priority 1995, dated 1998).

Tests used:
Thrombin [1] = biological target: T1, Thrombin (Homo sapiens, UniProt P00734); conditions: background statement; cited from earlier work
Cathepsin G = conditions: background statement; cited from earlier work
[2] = system: human neutrophil elastase; conditions: background statement; cited from earlier work
Thrombin [3] = biological target: T1, Thrombin; assay: thrombin inhibition activity assay (D.4), specific activity; assay type: biochemical
Procedure: Refolded or soluble protein was tested for capacity to inhibit thrombin in a standard assay. Briefly, serial 2-fold dilutions of PN-1 variant were added to microtiter plate wells (50 μl/well), followed by 50 μl of a 30 μg/ml heparin solution, followed by 1 NIH unit of thrombin in 50 μl. These were allowed to incubate at 25° C. for 15 minutes. Residual thrombin activity was measured by the addition of 50 μl S-2238 (Kabi Pharmaceuticals) at 0.625 mg/ml. PN-1 variants were tested for their ability to inhibit urokinase using the substrate S-2444, plasmin using the substrate S-2390, tPA using the substrate S2288, Factor Xa using the substrate S-2222 or S-2765, kallikrein using the substrate S-2302, human neutrophil elastase using s-AAPV-pna (Sigma), cathepsin G using s-AAPF-pna (Sigma) in a similar manner, with or without the addition of heparin.
Each of the PN-1 site-directed mutant proteins, as well as wild type PN-1, were modified by cysteine-PEGylation using the protocol described in F.2. The activity of wild type PN-1, each of the PN-1 site-directed mutants, and the cysteine-PEGylated wild type and mutant proteins was determined using the assay described in D.4.

[4] = system: human neutrophil elastase; assay: second-order association rate constant vs elastase; assay type: biochemical
Procedure: Refolded or soluble protein was tested for capacity to inhibit thrombin in a standard assay. Briefly, serial 2-fold dilutions of PN-1 variant were added to microtiter plate wells (50 μl/well), followed by 50 μl of a 30 μg/ml heparin solution, followed by 1 NIH unit of thrombin in 50 μl. These were allowed to incubate at 25° C. for 15 minutes. Residual thrombin activity was measured by the addition of 50 μl S-2238 (Kabi Pharmaceuticals) at 0.625 mg/ml. […]
The second-order rate association constants were determined for appropriate inhibitors-proteases combinations by combining equal-molar amounts of each protein (determined by titration as above) for various times from 1 second to 4 hours (as appropriate) and following the activity loss. […] Alternatively, the apparent first order rate constant was determined from the slope of a plot of log (normalized activity) vs time. The second order rate constant was calculated by dividing the apparent first order rate constant by the PN-1 (or variant) concentration used.

E. coli = assay: bactericidal effect of PN-1 added to E. coli; assay type: cell-based; conditions: native PN-1 added to E. coli
Procedure: Alternatively, PN-1 can be generated in a soluble form within E. coli by adjusting the fermentation conditions. This procedure provides a greater yield of soluble PN-1 as the fermentation temperature is decreased from 37° C. to 26° C. with a concomitant loss in inclusion body material. This is quite an unexpected finding, since PN-1 is bactericidal when native PN-1 is added to E. coli. To purify soluble PN-1, the cell supernatant from the disruption step was clarified by centrifugation and filtration or by treatment with polycations such as polyethyleneimine or Biacryl™ followed by centrifugation and filtration, and the soluble protein was purified as above. The generation of soluble material has many advantages: there is more certainty that the protein is correctly folded, there are no refolding steps, there is greater reproducibility from batch to batch.

B1: PN-1 (protein, UniProt P07093 20-398, looked up)
Glia-derived nexin: SHFNPLSLEELGSNTGIQVFNQIVKSRPHDNIVISPHGIASVLGMLQLGADGRTKKQLAMVMRYGVNGVGKILKKINKAIVSKKNKDIVTVANAVFVKNASEIEVPFVTRNKDVFQCEVRNVNFEDPASACDSINAWVKNETRDMIDNLLSPDLIDGVLTRLVLVNAVYFKGLWKSRFQPENTKKRTFVAADGKSYQVPMLAQLSVFRCGSTSAPNDLWYNFIELPYHGESISMLIALPTESSTPLSAIIPHISTKTIDSWMSIMVPKRVQVILPKFTAVAQTDLKEPLKVLGITDMFDSSKANFAKITTGSENLHVSHILQKAKIEVSEDGTKASAATTAILIARSSPPWFIVDRPFLFFIRHNPTGAVLFMGQINKP
For B1, the “acceleration of thrombin inhibition in the presence of heparin” value (Thrombin [1]) is listed as 50-100 fold, the “inhibition of cathepsin G” value (Cathepsin G) is listed as “does not inhibit” and the inhibition of elastase [2] is listed as “does not inhibit”. For the same molecule, the “ACTIVITY, AFTER PEG MODIFICATION” value (Thrombin [3]; after cysteine-PEGylation with Maleimido-PEG) was 0.017 NIH units of thrombin inhibited per μg PN1 (variant), the “SPECIFIC ACTIVITY, BEFORE PEG MODIFICATION” value (Thrombin [3]; before PEG modification) was 0.50 NIH units of thrombin inhibited per μg PN1 (variant) and the “REL TO WT, BEFORE PEG MODIFICATION” value (Thrombin [3]; before PEG modification, activity relative to wild type PN-1) was 1. The “REL TO ACTIVITY BEFORE PEG, AFTER PEG MODIFICATION” value (Thrombin [3]; cysteine-PEGylated protein relative to same protein before PEGylation) was 0.03, the “inhibitory activity against elastase” value [4] was “no inhibitory activity against elastase” and the “effect on E. coli” value (E. coli) was “bactericidal”.
